Molecular target: purified recombinant cathepsin A (CTSA) (human) (UniProt P10619)
Sequence (P10619 29-480): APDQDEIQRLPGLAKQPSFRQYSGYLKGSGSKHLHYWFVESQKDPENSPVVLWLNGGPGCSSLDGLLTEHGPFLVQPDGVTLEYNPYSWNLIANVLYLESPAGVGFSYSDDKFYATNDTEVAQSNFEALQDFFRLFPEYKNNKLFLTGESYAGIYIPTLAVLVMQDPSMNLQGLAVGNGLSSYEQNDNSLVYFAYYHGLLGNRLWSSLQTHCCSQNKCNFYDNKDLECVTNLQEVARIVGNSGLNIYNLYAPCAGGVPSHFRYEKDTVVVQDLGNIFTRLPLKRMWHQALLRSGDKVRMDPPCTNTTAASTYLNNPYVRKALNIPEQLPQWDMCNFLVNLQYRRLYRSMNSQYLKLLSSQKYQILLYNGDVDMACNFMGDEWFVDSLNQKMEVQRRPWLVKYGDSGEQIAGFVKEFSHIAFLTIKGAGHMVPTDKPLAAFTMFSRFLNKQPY

NEU1 enzymatic activity (moles of substrate/moles of NEU1/sec) of recombinant NEU1 incubated with CTSA; fold reduction by high HS concentrations (≥0.3 mg/mL): 100 fold
Substance: purified recombinant NEU1 (from UniProt Q99519 48-415) (enzyme)

Source: PMC12352893
